In US20200024330A1:

Tests used:
Assay in all cases: cell-based or functional assay
[1] = target: HIV-1 93UG077 envelope glycoprotein (Env) (HIV-1)
[2] = target: HIV-1 JRCSF envelope glycoprotein (Env) (HIV-1) (UniProt P20871)
[3] = target: HIV-1 Env of isolate MGRM-A-005 (HIV-1)
[4] = target: HIV-1 Env of isolate MGRM-AE-002 (HIV-1)
[5] = target: HIV-1 Env of isolate MGRM-AE-003 (HIV-1)
[6] = target: Env of the clade AE HIV-1 pseudoviruses of the cross-clade 162-pseudovirus panel (n = 10)
[7] = target: HIV-1 MGRM-A-010 envelope glycoprotein (Env) (HIV-1)
[8] = target: HIV-1 MGRM-C-028 envelope glycoprotein (Env) (HIV-1)
[9] = target: HIV-1 APV13 envelope glycoprotein (Env) (HIV-1)
[10] = target: HIV-1 Env of isolate MGRM-A-003 (HIV-1)
[11] = target: HIV-1 Env of isolate MGRM-A-001 (HIV-1)
[12] = target: HIV-1 JRFL envelope glycoprotein (Env) (HIV-1)
[13] = target: HIV-1 JR-CSF Env G324A (HIV-1 isolate JR-CSF) (UniProt P20871)
[14] = target: HIV-1 Env of isolate MGRM-A-008 (HIV-1)
[15] = target: HIV-1 Env of isolate 92WR021 (HIV-1)
[16] = target: HIV-1 NL43 envelope glycoprotein (Env) (HIV-1)
[17] = target: HIV-1 Env of isolate MGRM-A-014 (HIV-1)
[18] = target: HIV-1 92BR020 envelope glycoprotein (Env) (HIV-1)
[19] = target: HIV-1 Env of isolate MGRM-A-010 (HIV-1)
[20] = target: HIV-1 Env of isolate MGRM-A-007 (HIV-1)
[21] = target: HIV-1 Env of isolate MGRM-A-009 (HIV-1)
[22] = target: HIV-1 Env of isolate 92UG037 (HIV-1)
[23] = target: HIV-1 Env of isolate VLGCA1 (HIV-1)
[24] = target: HIV-1 Env of isolate 92WR026 (HIV-1)
[25] = target: HIV-1 Env of isolate MGRM-A-011 (HIV-1)
[26] = target: HIV-1 MGRM-C-026 envelope glycoprotein (Env) (HIV-1)
[27] = target: HIV-1 APV17 envelope glycoprotein (Env) (HIV-1)
[28] = target: HIV-1 92RW020 envelope glycoprotein (Env) (HIV-1)
[29] = target: HIV-1 Env of isolate 92WR009 (HIV-1)
[30] = target: HIV-1 Env of isolate MGRM-A-004 (HIV-1)
[31] = target: HIV-1 Env of isolate 94UG103 (HIV-1)
[32] = target: HIV-1 94UG103 envelope glycoprotein (Env) (HIV-1)
[33] = target: HIV-1 Env of isolate 94KE105 (HIV-1)
[34] = target: HIV-1 Env of isolate MGRM-A-012 (HIV-1)
[35] = target: HIV-1 Env of isolate MGRM-A-006 (HIV-1)
[36] = target: HIV-1 Env of isolate 93UG077 (HIV-1)
[37] = target: HIV-1 Env of isolate MGRM-A-013 (HIV-1)

| Binder | IC50 (µg/mL), pseudovirus neutralization [3] [µg/mL] | IC50 (µg/mL), pseudovirus neutralization [4] [µg/mL] | IC50 (µg/mL), pseudovirus neutralization [5] [µg/mL] | IC50 (µg/mL), pseudovirus neutralization [10] [µg/mL] | IC50 (µg/mL), pseudovirus neutralization [11] [µg/mL] | IC50 (µg/mL), pseudovirus neutralization [14] [µg/mL] | IC50 (µg/mL), pseudovirus neutralization [15] [µg/mL] | IC50 (µg/mL), pseudovirus neutralization [17] [µg/mL] | IC50 (µg/mL), pseudovirus neutralization [19] [µg/mL] | IC50 (µg/mL), pseudovirus neutralization [20] [µg/mL] | IC50 (µg/mL), pseudovirus neutralization [21] [µg/mL] | IC50 (µg/mL), pseudovirus neutralization [22] [µg/mL] | IC50 (µg/mL), pseudovirus neutralization [23] [µg/mL] | IC50 (µg/mL), pseudovirus neutralization [24] [µg/mL] | IC50 (µg/mL), pseudovirus neutralization [25] [µg/mL] | IC50 (µg/mL), pseudovirus neutralization [29] [µg/mL] | IC50 (µg/mL), pseudovirus neutralization [30] [µg/mL] | IC50 (µg/mL), pseudovirus neutralization [31] [µg/mL] | IC50 (µg/mL), pseudovirus neutralization [33] [µg/mL] | IC50 (µg/mL), pseudovirus neutralization [34] [µg/mL] | further results |
| --- | --- | --- | --- | --- | --- | --- | --- | --- | --- | --- | --- | --- | --- | --- | --- | --- | --- | --- | --- | --- | --- |
| PGT-126 (antibody, V domains shown) VH: QPQLQESGPGLVEASETLSLTCTVSGDSTAACDYFWGWVRQPPGKGLEWIGGLSHCAGYYNTGWTYHNPSLKSRLTISLDTPKNQVFLKLNSVTAADTAIYYCARFDGEVLVYHDWPKPAWVDLWGRGTLVTVSS VL: QSALTQPPSASGSPGQSISISCTGTSNRFVSWYQQHPGKAPKLVIYGVNKRPSGVPDRFSGSKSGNTASLTVSGLQTDDEAVYYCSSLVGNWDVIFGGGTKLTVL | > 50 | > 50 | > 50 | > 50 | > 50 | > 50 | 0.006 | 0.01 | 0.002 | > 50 | 0.004 | 0.011 | > 50 | 0.008 | > 50 | > 50 | > 50 | 0.008 | 0.006 | 0.097 | IC50 neutralization [1]: 0.0256 µg/mL; IC50 neutralization [2]: 0.0061 µg/mL; Median IC50 against viruses neutralized with an IC50 <50 µg/ml [6]: 1.77 µg/mL; IC50 neutralization [7]: 0.0033 µg/mL; IC50 neutralization [8]: 0.283 µg/mL; IC50 neutralization [9]: 0.012 µg/mL; IC50 neutralization [12]: 0.014 µg/mL; Fold IC50 increase relative to wild-type [13]: 3.3 fold; IC50 neutralization [16]: > 10 µg/mL; IC50 neutralization [18]: 0.0163 µg/mL; IC50 neutralization [26]: 0.0076 µg/mL; IC50 neutralization [27]: 0.501 µg/mL; IC50 neutralization [28]: 0.0046 µg/mL; IC50 neutralization [32]: 0.0091 µg/mL; IC50 (µg/mL), pseudovirus neutralization [35]: > 50 µg/mL; IC50 (µg/mL), pseudovirus neutralization [36]: 0.02 µg/mL; IC50 (µg/mL), pseudovirus neutralization [37]: 0.006 µg/mL |
| PGT-127 (antibody, V domains shown) VH: QPQLQESGPGLVEASETLSLTCTVSGDSTGRCNYFWGWVRQPPGKGLEWIGSLSHCRSYYNTDWTYHNPSLKSRLTISLDTPKNQVFLRLTSVTAADTATYYCARFGGEVLVYRDWPKPAWVDLWGRGTLVVTVS VL: QSALTQPPSASGSPGQSITISCTGTSNNFVSWYQQYPGKAPKLVIYEVNKRPSGVPDRFSGSKSGSTASLTVSGLQADDEGVYYCSSLVGNWDVIFGGGTKLTVL | > 50 | > 50 | > 50 | > 50 | > 50 | > 50 | 0.011 | 0.04 | 0.017 | > 50 | 0.013 | 0.014 | > 50 | 0.024 | > 50 | > 50 | > 50 | 0.017 | 0.023 | 0.105 | IC50 (µg/mL), pseudovirus neutralization [35]: > 50 µg/mL; IC50 (µg/mL), pseudovirus neutralization [36]: 0.055 µg/mL; IC50 (µg/mL), pseudovirus neutralization [37]: 0.029 µg/mL |
